Results as given in patent publication US20260001928A1 (CORTERIA PHARMACEUTICALS, priority 2022, published 2026).
*1 amine or outer side, *2 acyl side, *3 side chain or, on linkers, in order; H or OH if unused. Where no end group is shown, it is not given here. Side-chain parts run from the residue outwards. [ ]: non-standard residue; d: D form. The star is where a group is joined. C20 diacid = O=C(O)CCCCCCCCCCCCCCCCCCC(=O)*; γGlu = O=C(O)[C@H](CCC(=O)[*:2])N[*:1]; NMeI = CC[C@H](C)[C@H](NC)C(=O)O; Pentanoyl = CCCCC(=O)*; Aib = CC(C)(N)C(=O)O

T1: CRF1R receptor (UniProt P34998 24-415, limits assumed)
T1 sequence (looked up): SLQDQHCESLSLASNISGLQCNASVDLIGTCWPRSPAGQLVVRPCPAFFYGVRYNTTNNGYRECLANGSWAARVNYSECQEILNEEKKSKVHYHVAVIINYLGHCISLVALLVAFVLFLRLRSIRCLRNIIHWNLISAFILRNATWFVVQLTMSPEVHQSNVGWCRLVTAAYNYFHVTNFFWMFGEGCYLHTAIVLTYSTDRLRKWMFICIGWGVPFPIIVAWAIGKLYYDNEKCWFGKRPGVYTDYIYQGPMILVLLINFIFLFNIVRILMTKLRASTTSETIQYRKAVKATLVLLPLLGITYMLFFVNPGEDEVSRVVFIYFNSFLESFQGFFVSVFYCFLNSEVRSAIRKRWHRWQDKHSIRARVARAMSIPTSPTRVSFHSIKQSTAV


Key:
[1] = biological target: human corticotropin-releasing factor 2a (CRF2a receptor) (human), Q13324; assay: cell-based or functional assay
human corticotropin-releasing factor 2a (CRF2a receptor) (human), Q13324, sequence (Q13324 20-411): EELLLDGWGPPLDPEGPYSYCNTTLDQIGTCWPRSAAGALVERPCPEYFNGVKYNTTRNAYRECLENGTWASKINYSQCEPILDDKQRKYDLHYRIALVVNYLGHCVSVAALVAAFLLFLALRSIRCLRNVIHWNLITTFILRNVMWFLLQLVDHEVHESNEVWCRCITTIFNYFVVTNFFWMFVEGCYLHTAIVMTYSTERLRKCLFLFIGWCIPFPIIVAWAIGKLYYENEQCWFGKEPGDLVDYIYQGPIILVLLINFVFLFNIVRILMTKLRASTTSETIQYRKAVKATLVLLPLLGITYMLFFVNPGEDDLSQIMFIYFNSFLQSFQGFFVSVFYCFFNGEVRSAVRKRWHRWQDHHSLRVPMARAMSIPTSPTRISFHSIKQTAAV

CRF1R receptor = biological target: T1, CRF1R receptor; assay: cell-based or functional assay

EC50 [nM] (cAMP) [1] | Emax (% I) (CRF1R receptor) [%] | EC50 (CRF1R receptor) [nM] | Binder
0.12 | 34 |  | [NMeI]VLSLD[dV]PIKLK([γGlu-C20 diacid])KILLEQEKQKKQREQAETN[Aib]QILAQV-NH2 (N-terminus assumed; SMILES CC[C@H](C)[C@H](NC)C(=O)N[C@H](C(=O)N[C@@H](CC(C)C)C(=O)N[C@@H](CO)C(=O)N[C@@H](CC(C)C)C(=O)N[C@@H](CC(=O)O)C(=O)N[C@@H](C(=O)N1CCC[C@H]1C(=O)N[C@H](C(=O)N[C@@H](CCCCN)C(=O)N[C@@H](CC(C)C)C(=O)N[C@@H](CCCCNC(=O)CC[C@H](NC(=O)CCCCCCCCCCCCCCCCCCC(=O)O)C(=O)O)C(=O)N[C@@H](CCCCN)C(=O)N[C@H](C(=O)N[C@@H](CC(C)C)C(=O)N[C@@H](CC(C)C)C(=O)N[C@@H](CCC(=O)O)C(=O)N[C@@H](CCC(N)=O)C(=O)N[C@@H](CCC(=O)O)C(=O)N[C@@H](CCCCN)C(=O)N[C@@H](CCC(N)=O)C(=O)N[C@@H](CCCCN)C(=O)N[C@@H](CCCCN)C(=O)N[C@@H](CCC(N)=O)C(=O)N[C@@H](CCCNC(=N)N)C(=O)N[C@@H](CCC(=O)O)C(=O)N[C@@H](CCC(N)=O)C(=O)N[C@@H](C)C(=O)N[C@@H](CCC(=O)O)C(=O)N[C@H](C(=O)N[C@@H](CC(N)=O)C(=O)NC(C)(C)C(=O)N[C@@H](CCC(N)=O)C(=O)N[C@H](C(=O)N[C@@H](CC(C)C)C(=O)N[C@@H](C)C(=O)N[C@@H](CCC(N)=O)C(=O)N[C@H](C(N)=O)C(C)C)[C@@H](C)CC)[C@@H](C)O)[C@@H](C)CC)[C@@H](C)CC)C(C)C)C(C)C) [SEQ ID NO 214]
0.05 | 61 | 80.3 | [NMeI]VLSLD[dV]PIKLK([γGlu-C20 diacid])KILLEQEAQKKQREQAETN[Aib]QILAQV-NH2 (N-terminus assumed; SMILES CC[C@H](C)[C@H](NC)C(=O)N[C@H](C(=O)N[C@@H](CC(C)C)C(=O)N[C@@H](CO)C(=O)N[C@@H](CC(C)C)C(=O)N[C@@H](CC(=O)O)C(=O)N[C@@H](C(=O)N1CCC[C@H]1C(=O)N[C@H](C(=O)N[C@@H](CCCCN)C(=O)N[C@@H](CC(C)C)C(=O)N[C@@H](CCCCNC(=O)CC[C@H](NC(=O)CCCCCCCCCCCCCCCCCCC(=O)O)C(=O)O)C(=O)N[C@@H](CCCCN)C(=O)N[C@H](C(=O)N[C@@H](CC(C)C)C(=O)N[C@@H](CC(C)C)C(=O)N[C@@H](CCC(=O)O)C(=O)N[C@@H](CCC(N)=O)C(=O)N[C@@H](CCC(=O)O)C(=O)N[C@@H](C)C(=O)N[C@@H](CCC(N)=O)C(=O)N[C@@H](CCCCN)C(=O)N[C@@H](CCCCN)C(=O)N[C@@H](CCC(N)=O)C(=O)N[C@@H](CCCNC(=N)N)C(=O)N[C@@H](CCC(=O)O)C(=O)N[C@@H](CCC(N)=O)C(=O)N[C@@H](C)C(=O)N[C@@H](CCC(=O)O)C(=O)N[C@H](C(=O)N[C@@H](CC(N)=O)C(=O)NC(C)(C)C(=O)N[C@@H](CCC(N)=O)C(=O)N[C@H](C(=O)N[C@@H](CC(C)C)C(=O)N[C@@H](C)C(=O)N[C@@H](CCC(N)=O)C(=O)N[C@H](C(N)=O)C(C)C)[C@@H](C)CC)[C@@H](C)O)[C@@H](C)CC)[C@@H](C)CC)C(C)C)C(C)C) [SEQ ID NO 216]
0.16 | 48 | 222 | Pentanoyl-VLSLD[dV]PIKLK([γGlu-C20 diacid])KILLEQEKQKKQREQAETN[Aib]QILAQV-NH2 (SMILES CCCCC(=O)N[C@H](C(=O)N[C@@H](CC(C)C)C(=O)N[C@@H](CO)C(=O)N[C@@H](CC(C)C)C(=O)N[C@@H](CC(=O)O)C(=O)N[C@@H](C(=O)N1CCC[C@H]1C(=O)N[C@H](C(=O)N[C@@H](CCCCN)C(=O)N[C@@H](CC(C)C)C(=O)N[C@@H](CCCCNC(=O)CC[C@H](NC(=O)CCCCCCCCCCCCCCCCCCC(=O)O)C(=O)O)C(=O)N[C@@H](CCCCN)C(=O)N[C@H](C(=O)N[C@@H](CC(C)C)C(=O)N[C@@H](CC(C)C)C(=O)N[C@@H](CCC(=O)O)C(=O)N[C@@H](CCC(N)=O)C(=O)N[C@@H](CCC(=O)O)C(=O)N[C@@H](CCCCN)C(=O)N[C@@H](CCC(N)=O)C(=O)N[C@@H](CCCCN)C(=O)N[C@@H](CCCCN)C(=O)N[C@@H](CCC(N)=O)C(=O)N[C@@H](CCCNC(=N)N)C(=O)N[C@@H](CCC(=O)O)C(=O)N[C@@H](CCC(N)=O)C(=O)N[C@@H](C)C(=O)N[C@@H](CCC(=O)O)C(=O)N[C@H](C(=O)N[C@@H](CC(N)=O)C(=O)NC(C)(C)C(=O)N[C@@H](CCC(N)=O)C(=O)N[C@H](C(=O)N[C@@H](CC(C)C)C(=O)N[C@@H](C)C(=O)N[C@@H](CCC(N)=O)C(=O)N[C@H](C(N)=O)C(C)C)[C@@H](C)CC)[C@@H](C)O)[C@@H](C)CC)[C@@H](C)CC)C(C)C)C(C)C) [SEQ ID NO 219]
0.11 | 24 |  | [NMeI]VLSLD[dV]PIKLK([γGlu-C20 diacid])KILLEQEKQKEQREQAETN[Aib]QILAQV-NH2 (N-terminus assumed; SMILES CC[C@H](C)[C@H](NC)C(=O)N[C@H](C(=O)N[C@@H](CC(C)C)C(=O)N[C@@H](CO)C(=O)N[C@@H](CC(C)C)C(=O)N[C@@H](CC(=O)O)C(=O)N[C@@H](C(=O)N1CCC[C@H]1C(=O)N[C@H](C(=O)N[C@@H](CCCCN)C(=O)N[C@@H](CC(C)C)C(=O)N[C@@H](CCCCNC(=O)CC[C@H](NC(=O)CCCCCCCCCCCCCCCCCCC(=O)O)C(=O)O)C(=O)N[C@@H](CCCCN)C(=O)N[C@H](C(=O)N[C@@H](CC(C)C)C(=O)N[C@@H](CC(C)C)C(=O)N[C@@H](CCC(=O)O)C(=O)N[C@@H](CCC(N)=O)C(=O)N[C@@H](CCC(=O)O)C(=O)N[C@@H](CCCCN)C(=O)N[C@@H](CCC(N)=O)C(=O)N[C@@H](CCCCN)C(=O)N[C@@H](CCC(=O)O)C(=O)N[C@@H](CCC(N)=O)C(=O)N[C@@H](CCCNC(=N)N)C(=O)N[C@@H](CCC(=O)O)C(=O)N[C@@H](CCC(N)=O)C(=O)N[C@@H](C)C(=O)N[C@@H](CCC(=O)O)C(=O)N[C@H](C(=O)N[C@@H](CC(N)=O)C(=O)NC(C)(C)C(=O)N[C@@H](CCC(N)=O)C(=O)N[C@H](C(=O)N[C@@H](CC(C)C)C(=O)N[C@@H](C)C(=O)N[C@@H](CCC(N)=O)C(=O)N[C@H](C(N)=O)C(C)C)[C@@H](C)CC)[C@@H](C)O)[C@@H](C)CC)[C@@H](C)CC)C(C)C)C(C)C) [SEQ ID NO 218]
0.09 | 33 |  | [NMeI]VLSLD[dV]PIKLK([γGlu-C20 diacid])KILLEQEKQKAQREQAETN[Aib]QILAQV-NH2 (N-terminus assumed; SMILES CC[C@H](C)[C@H](NC)C(=O)N[C@H](C(=O)N[C@@H](CC(C)C)C(=O)N[C@@H](CO)C(=O)N[C@@H](CC(C)C)C(=O)N[C@@H](CC(=O)O)C(=O)N[C@@H](C(=O)N1CCC[C@H]1C(=O)N[C@H](C(=O)N[C@@H](CCCCN)C(=O)N[C@@H](CC(C)C)C(=O)N[C@@H](CCCCNC(=O)CC[C@H](NC(=O)CCCCCCCCCCCCCCCCCCC(=O)O)C(=O)O)C(=O)N[C@@H](CCCCN)C(=O)N[C@H](C(=O)N[C@@H](CC(C)C)C(=O)N[C@@H](CC(C)C)C(=O)N[C@@H](CCC(=O)O)C(=O)N[C@@H](CCC(N)=O)C(=O)N[C@@H](CCC(=O)O)C(=O)N[C@@H](CCCCN)C(=O)N[C@@H](CCC(N)=O)C(=O)N[C@@H](CCCCN)C(=O)N[C@@H](C)C(=O)N[C@@H](CCC(N)=O)C(=O)N[C@@H](CCCNC(=N)N)C(=O)N[C@@H](CCC(=O)O)C(=O)N[C@@H](CCC(N)=O)C(=O)N[C@@H](C)C(=O)N[C@@H](CCC(=O)O)C(=O)N[C@H](C(=O)N[C@@H](CC(N)=O)C(=O)NC(C)(C)C(=O)N[C@@H](CCC(N)=O)C(=O)N[C@H](C(=O)N[C@@H](CC(C)C)C(=O)N[C@@H](C)C(=O)N[C@@H](CCC(N)=O)C(=O)N[C@H](C(N)=O)C(C)C)[C@@H](C)CC)[C@@H](C)O)[C@@H](C)CC)[C@@H](C)CC)C(C)C)C(C)C) [SEQ ID NO 217]
0.12 | 19 |  | [NMeI]VLSLD[dV]PIKLK([γGlu-C20 diacid])KILLEQEKQK[Aib]QREQAETN[Aib]QILAQV-NH2 (N-terminus assumed; SMILES CC[C@H](C)[C@H](NC)C(=O)N[C@H](C(=O)N[C@@H](CC(C)C)C(=O)N[C@@H](CO)C(=O)N[C@@H](CC(C)C)C(=O)N[C@@H](CC(=O)O)C(=O)N[C@@H](C(=O)N1CCC[C@H]1C(=O)N[C@H](C(=O)N[C@@H](CCCCN)C(=O)N[C@@H](CC(C)C)C(=O)N[C@@H](CCCCNC(=O)CC[C@H](NC(=O)CCCCCCCCCCCCCCCCCCC(=O)O)C(=O)O)C(=O)N[C@@H](CCCCN)C(=O)N[C@H](C(=O)N[C@@H](CC(C)C)C(=O)N[C@@H](CC(C)C)C(=O)N[C@@H](CCC(=O)O)C(=O)N[C@@H](CCC(N)=O)C(=O)N[C@@H](CCC(=O)O)C(=O)N[C@@H](CCCCN)C(=O)N[C@@H](CCC(N)=O)C(=O)N[C@@H](CCCCN)C(=O)NC(C)(C)C(=O)N[C@@H](CCC(N)=O)C(=O)N[C@@H](CCCNC(=N)N)C(=O)N[C@@H](CCC(=O)O)C(=O)N[C@@H](CCC(N)=O)C(=O)N[C@@H](C)C(=O)N[C@@H](CCC(=O)O)C(=O)N[C@H](C(=O)N[C@@H](CC(N)=O)C(=O)NC(C)(C)C(=O)N[C@@H](CCC(N)=O)C(=O)N[C@H](C(=O)N[C@@H](CC(C)C)C(=O)N[C@@H](C)C(=O)N[C@@H](CCC(N)=O)C(=O)N[C@H](C(N)=O)C(C)C)[C@@H](C)CC)[C@@H](C)O)[C@@H](C)CC)[C@@H](C)CC)C(C)C)C(C)C) [SEQ ID NO 215]
